What was measured:
[1] = In vitro aging: isomerization of Asp1 and Asp7; type: physicochemical; settings: from the rates in Figure 4
NSC-hTERT = settings: incubated with NSC-hTERT cells; cited from earlier work
SK-N-SH = settings: incubated with SK-N-SH cells; cited from earlier work
SH-SY5Y = settings: incubated with SH-SY5Y cells; cited from earlier work

## Aβ: amyloid beta in general; isomerization estimated from the measured rates
[1]
  degree of isomerization within a 30 h time frame: ~0.2%

## isomerized Aβ1–42: isomerized Aβ1–42 studied by Makarov and co-workers
NSC-hTERT
  toxicity relative to canonical form: more toxic than the canonical form
SK-N-SH
  toxicity relative to canonical form: more toxic than the canonical form
SH-SY5Y
  toxicity relative to canonical form: more toxic than the canonical form
